Experimental data published in patent US20120177664A1.

Molecular target: A beta oligomer (synthetic A beta1-40, HCl form, 0.1 mg/ml in PBS, incubated at 37 degrees C for one hour) (UniProt P05067)
Assay: SPR (Biacore 3000)

Kd: 2.91 nM
koff: 0.000168 s⁻¹
kon: 57800 M⁻¹ s⁻¹
Substance: Anti-A beta antibody 6E10
